Data: article PMC5415106

B1: GST-Dpb11-wild-type [budding yeast] / Cdc45 (purified, radiolabelled) [budding yeast] (parent)
chain 1: MKPFQGITFCPTAINNEILAKKISKKIIKLGGIFSKDLTRQVNVLVVGSTTNTNKFKFAVKHRFDIIFIDIQAIDDIYQLWLSGENILPDSNTATMTGSTYEMLKILYRRFSFKYLHNFNIFIGRITDTNITSIDSLVRSIKKLGCSSYNYQNFVIKDTSSHNDDDDQGQNGQISIFVTDTLLGARVNAAIEQNIPIVHFKWILDCQKRSALLPYDPYYLLPNIKDLPYDSIGSNSCDCWDKINTTFPTNIDAQSSLQRQQSSSTLTPSLPKTSSLLNKFKPKGEKIWDKAMSLQQHSKTNFSVLGQSPLSINNKQEDLSDNSTLIFKNCAFIIHHIFPGNHRSILTKIVVQNGGKIETSYLSGIYDHSYYIIPSNKALDSFNDLPEIIDDNDGIVTEFFIERCLYYQKLLHPIDLWSKPFLSTIEFQVSSSSKLLHHEFSSSPFLNVTITGFSGVELLHLTKVLNLLKPMGINYVEYLNKSTDILLINLAALPSIPKTHPLWSNEFSDLFTQFCINNNNDDPGDNNRKDFQNNSILRNSMKRKIEYIKKFHSIPVVTPAFIFKLLSAASGENNEIFLNNIKWCIICPRGHKDDFKCKIKKPYYTSISSEKKYQNNDPKIDKTILLKRNNSSLSEHSMKDTKNELLQKIRETDSGRKKRSVSSSIMDVSSERQMPDTKRIKLESLPKNFVPKQIKRTTSWGTIMSENVPTEQPTAISNPEEIPRTEEVSHTQVTYGSIQDKKRTASLEKPMRRQTRNQTKELDS
chain 2: MYYGISQFSEAYNKILRNSSSHSSCQLVIFVSCLNIDALCATKMLSLLFKKQLVQSQIVPIFGYSELRRHYSQLDDNINSLLLVGFGGVIDLEAFLEIDPQEYVIDTDEKSGEQSFRRDIYVLDAHRPWNLDNIFGSQIIQCFDDGTVDDTLGEQKEAYYKLLELDEESGDDELSGDENDNNGGDDEATDADEVTDEDEEDEDETISNKRGNSSIGPNDLSKRKQRKKQIHEYEGVLEEYYSQGTTVVNSISAQIYSLLSAIGETNLSNLWLNILGTTSLDIAYAQVYNRLYPLLQDEVKRLTPSSRNSVKTPDTLTLNIQPDYYLFLLRHSSLYDSFYYSNYVNAKLSLWNENGKKRLHKMFARMGIPLSTAQETWLYMDHSIKRELGIIFDKNLDRYGLQDIIRDGFVRTLGYRGSISASEFVEALTALLEVGNSTDKDSVKINNDNNDDTDGEEEEDNSAQKLTNLRKRWVSNFWLSWDALDDRKVELLNRGIQLAQDLQRAIFNTGVAILEKKLIKHLRIYRLCVLQDGPDLDLYRNPLTLLRLGNWLIECCAESEDKQLLPMVLASIDENTDTYLVAGLTPRYPRGLDTIHTKKPILNNFSMAFQQITAETDAKVRIDNFESSIIEIRREDLSPFLEKLTLSGLL
B2: GST-Dpb11-wild-type [budding yeast] / PKA-Sld2T84D [modified: 32P-phosphate on the artificial PKA site; 32P-phosphate on the artificial PKA site] [budding yeast] (parent)
chain 1: B1 chain 1
chain 2: MYSFELDKLKIELKTWEHDFIDKNKREPTRDDIKSLRTVRQMYKQYSTLKKKQSLQRQKVDTQESVELPAHKKDHDEVVEIGPDPQVYGKAISIFDMNLSPIKPIYMTFTNNIDVNNDNSKTISNESSPRKTILLKSSPADRTLVAEPISSVKRQLNFQMLNASSTRTPTSSPCKNRNGKLVEIKKCSPTINPPLESGKPSGYYGPNSPLKLDEENIHLNISLNSSTKRRLQIAYPSLQKTPSKDQADISTSFSPSPLIRRPLTKSLIELAREHTEIVKEFGVLQEEDIEEEEEGEEGENGYDEKNHEDDFGLEDELIRPKVVKDIFQEDDDNDDSQAREDTFIRKRPKRRKVIRRLRDNDPETETAGFERDVHKELVKLKRRKVAEFLGSTSQISDTEFEHDPEASSGVVSSEQKPTAKRKGRKKYNLVSNNFRRLKLPKKNRFSNGRWGRR

Experiments:
[1] = variants of: B1; experiment: GST pull-down, phosphorimaging; conditions: with Cdc45 (purified, radiolabelled) [budding yeast], 10 pmoles GST-Dpb11, read off a plot
[2] = variants of: B2; experiment: GST pull-down, phosphorimaging; conditions: with PKA-Sld2T84D [modified: 32P-phosphate on the artificial PKA site

Variant | response ([1]; 1 pmole Cdc45 input, parent: 0.11) | response ([1]; 3 pmoles Cdc45 input, parent: 0.44) | response ([1]; 10 pmoles Cdc45 input, parent: 0.89) | response ([2]; 10 pmoles GST-Dpb11, 1 pmole Sld2T84D input, parent: 0.28, read off a plot) | response ([2]; 10 pmoles GST-Dpb11, 3 pmoles Sld2T84D input, parent: 0.64, read off a plot) | response ([2]; 10 pmoles GST-Dpb11, 10 pmoles Sld2T84D input, parent: 1.6, read off a plot)
chain 1 K463E K469E R538E K549E | 0.1 pmol | 0.42 pmol | 0.85 pmol | – | – | –
chain 1 K463E K469E R538E K549E | – | – | – | 0.3 pmol | 0.72 pmol | 1.7 pmol
